Measurements: the DeepSol protein solubility set

Assay: soluble on expression in E. coli; label from the status in PepcDB or PDB records

| Sequence | soluble on expression in E. coli |
| --- | --- |
| MGSDKIHHHHHHMIRNKAFVVRLYPNAAQTELINRTLGSARFVYNHFLARRIAAYKESGKGLTYGQTSSELTLLKQAEETSWLSEVDKFALQNSLKNLETAYKNFFRTVKQSGKKVGFPRFRKKRTGESYRTQFTNNNIQIGEGRLKLPKLGWVKTKGQQDIQGKILNVTVRRIHEGHYEASVLCEVEIPYLPAAPKFAAGVDVGIKDFAIVTDGVRFKHEQNPKYYRSTLKRLRKAQQTLSRRKKGSARYGKAKTKLARIHKRIVNKRQDFLHKLTTSLVREYEIIGTEHLKPDNMRKNRRLALSISDAGWGEFIRQLEYKAAWYGRLVSKVSPYFPSSQLCHDCGFKNPEVKNLAVRTWTCPNCGETHDRDENAALNIRREALVAAGISDTLNAHGGYVRPASAGNGLRSENHATLVV | not soluble |
| MMKKKWYIVLTMSGYEEKVKENIEKKVEATGIKNLVGRIVIPEEVVLDATSPSERLILSPKAKLHVNNGKDVNKGDLIAEEPPIYARRSGVIVDVKNVRKIVVETIDRKYTKTYYIPESAGIEPGLRVGTKVKQGLPLSKNEEYICELDGKIVEIERMKKVVVQTPDGEQDVYYIPLDVFDRDRIKKGKEVKQGEMLAEARKFFAKVSGRVEVVDYSTRKEIRIYKTKRRKLFPGYVFVEMIMNDEAYNFVRSVPYVMGFVSSGGQPVPVKDREMRPILRLAGLEEYEEKKKPVKVELGFKVGDMVKIISGPFEDFAGVIKEIDPERQELKVNVTIFGRETPVVLHVSEVEKIE | soluble |
| MGSDKIHHHHHHMISQRALEAFRAVMTTGTVSAAAEELNVSQPAVSRLVRDLEEYTQLRLFSRHGGRIVATREAHEFNAEIERSFLGLRVIEQAAREIRQGRRGTVSVAVMPALAQTILPDVMADVRVSHPDFRLELLAMPTQSIVRQVATRQCPLGLTSPTHHANEVDVVKSGSLPYRCVMPDGHPLAAYEIIRLQDLSGMEFINYTDATATGRMLDHRFAHMTTPPVVNARAPISPVIAALVRKGLGVAILDPFTAQDHVNRGGVSRPVQIDEEFHWSFIKPYGEKLSSDLMAVISIFEDLSKNYA | not soluble |
| SAPSQAPSRDRAGQEDEDRWEARGDRKARKPLVEKKRRARINESLQELRLLLAGTEVQAKLENAEVLELTVRRVQGALRGRAREREQLQAEASERFAAGYIQCMHEVHTFVSTCQAIDATVSAELLNHLLESMPLREGSSFQDLLGDSLAGLPGGSGRSSWPPGGSPESPLSSPPGPGDDLCSDLEEIPEAELNRVPAEGPDLVSTSLGSLTAARRAQSVWRPW | soluble |
| MGVEIQSPQEQSSYTVEQLVALNPFNPEILPDLENYVNVTSQTYSLEVNLCLLRLYQFEPERMNTHIVARILVKALMAMPTPDFSLCLFLIPERVQMEEQFKSLIVLSHYLETGRFQQFWDEAAKNRHILEAVPGFEQAIQAYASHLLSLSYQKVPRSVLAEAVNMDGASLDKFIEQQVTNSGWIVEKEGGSIVLPQNEFNHPELKKNTGENVPLEHIARIFPILG | not soluble |
| MGSDKIHHHHHHMRGEVKKIIEAIGDIFIGHEDVIRKVLAVALVNGNILFEDYPGLGKTLLAKAFAKILGLKFKRIQFTPDLLPADIIGTKVWKPEKGAFEVVKGPIFTNILLADEINRAPPKTQSALLEAMEERQVTIEGETFKLERPFFIIATQNPLELEGTYPLPEAQLDRFLVRLNIGYPRNEEDELEILKARLRWGKDDPTSDISPIISREDFIRMQEEVERGVIIHDDILRYIVRLVRRIREDERIEAGPSPRGGLALMKLAKANAFIEGRSYVIPDDVKYFAVEALAHRIVLKPEYSLERGIAEEIIREVLEEVPVPKDIRY | not soluble |
| MHYPEPISKLIDSFMKLPGIGPKTAQRLAFHTLDMKEDDVVQFAKALVDVKRELTYCSVCGHITENDPCYICEDKQRDRSVICVVEDDKDVIAMEKMREYKGLYHVLHGSISPMDGIGPEDINIPSLIERLKSDEVSELILAMNPNLEGESTAMYISRLVKPIGIKVTRLAQGLSVGGDLEYADEVTLSKAIAGRTEM | not soluble |
| MDKKQVTDLRSELLDSRFGAKSISTIAESKRFPLHEMRDDVAFQIINDELYLDGNARQNLATFCQTWDDENVHKLMDLSINKNWIDKEEYPQSAAIDLRCVNMVADLWHAPAPKNGQAVGTNTIGSSEACMLGGMAMKWRWRKRMEAAGKPTDKPNLVCGPVQICWHKFARYWDVELREIPMRPGQLFMDPKRMIEACDENTIGVVPTFGVTYTGNYEFPQPLHDALDKFQADTGIDIDMHIDAASGGFLAPFVAPDIVWDFRLPRVKSISASGHKFGLAPLGCGWVIWRDEEALPQELVFNVDYLGGQIGTFAINFSRPAGQVIAQYYEFLRLGREGYTKVQNASYQVAAYLADEIAKLGPYEFICTGRPDEGIPAVCFKLKDGEDPGYTLYDLSERLRLRGWQVPAFTLGGEATDIVVMRIMCRRGFEMDFAELLLEDYKASLKYLSDHPKLQGIAQQNSFKHT | soluble |
| MTHVCSVILIRRSFDIYHEQQKISLHNESILLLEKNLADDFAFCSPDTRRLDIDELTVCHYLQNIRQLPRNLGLHSKDRLLINQSPPMPLVTAIFDSFNESGVNSPILSNMLYLSCLSMFSHKKELIPLLFNSISTVSGKVERLISFDIAKRWYLRDIAERMYTSESLIKKKLQDENTCFSKILLASRMSMARRLLELRQIPLHTIAEKCGYSSTSYFINTFRQYYGVTPHQFAQHSPGTFS | not soluble |
| FVKSGWLLRQSTILKRWKKNWFDLWSDGHLIYYDDQTRQSIEDKVHMPVDCINIRTGHECRDIQPPDGKPRDCLLQIVCRDGKTISLCAESTDDCLAWKFTLQDSRT | soluble |
| MGSDKIHHHHHHMVRMEEPAVKQGFLHLQQQQTFGKKWRRFAAVLYGESGCALARLELQDVPEKTRRGEATRKVVRLSDCLRVAEVGSEASSPRDTSAFILETKERLYLLAAPSAERSDWIQAICLLAFPGQRKGSPGLEEKSGSPCMEENELYSSSTTGLCKEYMVTIRPTEASERCRLRGSYTLRTGVSALELWGGPEPGTQLYDWPYRFLRRFGRDKATFSFEAGRRCLSGEGNFEFETRHGNEIFQALEKVITVQKNATPSGPPSLPATGPMMPTVLPRPESPYSRPHDSLPSPSPGTLVPGMRPGAPEGEYAVPFDTVAHSLRKSFRGLLTGPPPHLPDPLYDSIQEDPGAPLPDHIYDEPEGVAALSLYDRTQRPSGETWREQATADGGPSSLQQDSSVPDWPQATEYDNVILKKGP | not soluble |
| HERRTVLAEWSIGIDIGGTFTDLVALDYAGGKLHSLKMLTTYDDPSLAVMEGVRQLMATCGIAASEVGRVVHATTLFTNALISRAGARTGLLCNQGFMDAIEIGNERKYDLYDLAIDRPPPLVPRDLRREIPGRLDAHGNELEPLDRQAVVAMARSLADAGATSIAVCLLHAYASPRHEQQVHAWIRQAL | not soluble |
| PATDWLSAETFESDLDETRVPEVPSSLHVRPLVTSIVVSWTPPENQNIVVRGYAIGYGIGSPHAQTIKVDYKQRYYTIENLDPSSHYVITLKAFNNVGEGIPLYESAVTRPHT | soluble |
| MSTPRIEHYTTDVHAHWEGIHPQDWAEVDLIGYENAMDKMYRTLCENPDAALVQVGHRSKLLNDHGSDYRFNGKFTSEQTKPERSHHDYNHFGKLMKWEGDRWYKYDFEVEVTDHTRSE | not soluble |
| MSPIPLPVTDTDDAWRARIAAHRADKDEFLATHDQSPIPPADRGAFDGLRYFDIDASFRVAARYQPARDPEAVELETTRGPPAEYTRAAVLGFDLGDSHHTLTAFRVEGESSLFVPFTDETTDDGRTYEHGRYMDVDPAGADGGDEVALDFNLAYNPFCAYGGSFSCALPPADNHVPAAITAGERVDADLEHHHHHH | soluble |
| MGSSHHHHHHSSGLVPRGSHMISNKLANIPDSYFGKTMGRKIEHGPLPLINMAVGIPDGPTPQGIIDHFQKALTIPENQKYGAFHGKEAFKQAIVDFYQRQYNVTLDKEDEVCILYGTKNGLVAVPTCVINPGDYVLLPDPGYTDYLAGVLLADGKPVPLNLEPPHYLPDWSKVDSQIIDKTKLIYLTYPNNPTGSTATKEVFDEAIAKFKGTDTKIVHDFAYGAFGFDAKNPSILASENGKDVAIEIYSLSKGYNMSGFRVGFAVGNKDMIQALKKYQTHTNAGMFGALQDAAIYALNHYDDFLEEQSNVFKTRRDRFEAMLAKADLPFVHAKGGIYVWLETPPGYDSEQFEQFLVQEKSILVAPGKPFGENGNRYVRISLALDDQKLDEAAIRLTELAYLYE | soluble |
| METLTVHAPSPSTNLPSYGNGAFSLSAPHVPGAGPLLVQVVYSFFQSPNMCLQALTQLEDYIKKHGASNPLTLQIISTNIGYFCNADRNLVLHPGISVYDAYHFAKPAPSQYDYRSMNMKQMSGNVTTPIVALAHYLWGNGAERSVNIANIGLKISPMKINQIKDIIKSGVVGTFPVSTKFTHATGDYNVITGAYLGNITLKTEGTLTISANGSWTYNGVVRSYDDKYDFNASTHRGIIGESLTRLGAMFSGKEYQILLPGEIHIKESGKRAAHHHHHH | soluble |
| MQGFASQPESSYWYPETLLDWSPETDPDARFNRSSIPLREREVLYTVNDTQQTDAKLVALSALNPNTSGVPSQGGNEFFANTFGFWQYVDLMVYWAGSAGEGIITPPSGDVIDAAHRNGVPILGNVFFPPKVYGGQEEWVDKMLVRGEDGSFPAADKLLEVAEYYGFDGWFINQETEGGTPETAKDMQEFLLYLQENKPEGMHIMWYDSMISNGDIRWQNYLTDENAMFFQAGNRKVADSMFLNFWWWNHSQERSKQKAASLGRSPYDLYAGIDVEANGTNTYVNWQQVFPEGGEPHTSLGIYRPDWAFKSTDTMRDFYDREQLFWVGPSGNPAKVDEHAEWKGMATYFPEKTVINELPFVTHFNTGSGQFFAINGKTKLEHHHHHH | not soluble |
| GQANHPTAAVVTEKQQMLEQHLQDVRKRVQDLEQKMKVVENLQDDFDFNYKTLKSQGDMQDLNGNNQSVTRQKMQQLEQMLTALDQMRRSIVSELAGLLSAMEYVQKTLTDEELADWKRRQQIACIGGPPNICLDRLENWITSLAESQLQTRQQIKKLEELQQKVSYKGDPIVQHRPMLEERIVELFRNLMKSAFVVERQPCMPMHPDRPLVIKTGVQFTTKVRLLVKFPELNYQLKIKVCIDKDSGDVAALRGSRKFNILGTNTKVMNMEESNNGSLSAEFKHLTLREQRCGNGGRANCDASLIVTEELHLITFETEVYHQGLKIDLETHSLPVVVISNICQMPNAWASILWYNMLTNNPKNVNFFTKPPIGTWDQVAEVLSWQFSSTTKRGLSIEQLTTLAEKLLGPGVNYSGCQITWAKFCKENMAGKGFSFWVWLDNIIDLVKKYILALWNEGYIMGFISKERERAILSTKPPGTFLLRFSESSKEGGVTFTWVEKDISGKTQIQSVEPYTKQQLNNMSFAEIIMGYKIMDATNILVSPLVYLYPDIPKEEAFGKYCR | soluble |
| MSLSETSRQLSGRFLHVTDFHLDTHYRKGTSEETLCHRDSGSAGRLGAEGSDCDSPQALIDETFRWIEKNLKGKIDFVLWTGDSARHDNDEKIPRTASEIIDLNKALAAKFIEVFEDSGAARGLSIPVIPTIGNNDIMPHNIFREAPNRWTRKFTEVWSEFIPEAQRHTFEEGGWFSAELIPNKLAALSLNTMYFYESNSAVDGCAMPSEPGFEHMEWLRVQLEILRQRGMKAILIGHVPPARSGSKRSWDESCWQKYTLFMNRFRDVVVGSVYGHMNVDHFMLQDSHDVDIVAASEDSSSDPGFSVQSRTDYLASLREEWDSMPSPPGGDSSDILLSDDWNLDALGKKEREGHHHHHH | soluble |
